# Biological target: HLA-A*02:01 (Homo sapiens, UniProt P04439, D140Y/D185E/D98H/E176V/E277Q/G131W/G231S/I119V/I121R/I166T/I218V/L300P/L318F/N151K/N90K/P208A/P217A/Q86G/Q94H/R138H/R169H/T345S)
# Assay: MHC binding assay: UV-ligand exchange with beta2m ELISA (exchange yield)
# Settings: binding to HLA-A*02:01, β2m ELISA
# Text: Candidate peptides for T cell based therapies according to the present invention were further tested for their MHC binding capacity (affinity). The individual peptide-MHC complexes were produced by UV-ligand exchange, where a UV-sensitive peptide is cleaved upon UV-irradiation, and exchanged with the peptide of interest as analyzed. Only peptide candidates that can effectively bind and stabilize the peptide-receptive MHC molecules prevent dissociation of the MHC complexes. To determine the yield of the exchange reaction, an ELISA was performed based on the detection of the light chain (β2m) of stabilized MHC complexes. The assay was performed as generally described in Rodenko et al. (Rodenko et al., 2006).
# 96 well MAXISorp plates (NUNC) were coated over night with 2 ug/ml streptavidin in PBS at room temperature, washed 4× and blocked for 1 h at 37° C. in 2% BSA containing blocking buffer. […] Peptide-MHC monomers of the UV-exchange reaction were diluted 100 fold in blocking buffer. Samples were incubated for 1h at 37° C., washed four times, incubated with 2 ug/ml HRP conjugated anti-β2m for 1h at 37° C., washed again and detected with TMB solution that is stopped with […]. Absorption was measured at 450 nm. Candidate peptides that show a high exchange yield (preferably higher than 50%, most preferred higher than 75%) are generally preferred for a generation and production of antibodies or fragments thereof, and/or T cell receptors or fragments thereof, as they show sufficient avidity to the MHC molecules and prevent dissociation of the MHC complexes.
row,"Peptide exchange (MHC class I binding score, peptide exchange yield)",Substance
1,“++++” (≥75% = ++++),104 (STMEQNFLL; listed as Homo sapiens) [compound 104]
2,“+++” (≥50 = +++),106 (LLYDAVHIVSV; listed as Homo sapiens) [compound 106]
3,“+++” (≥50 = +++),107 (FLQPVDDTQHL; listed as Homo sapiens) [compound 107]
4,“++++” (≥75% = ++++),108 (ALFPGVALLLA; listed as Homo sapiens) [compound 108]
5,“++++” (≥75% = ++++),109 (IILSILEQA; listed as Homo sapiens) [compound 109]
6,“+++” (≥50 = +++),110 (FLSQVDFEL; listed as Homo sapiens) [compound 110]
7,“+++” (≥50 = +++),111 (YVWGFYPAEV; listed as Homo sapiens) [compound 111]
8,“++” (≥20% = ++),114 (SLVGEPILQNV; listed as Homo sapiens) [compound 114]
9,“++” (≥20% = ++),115 (AIAGAGILYGV; listed as Homo sapiens) [compound 115]
10,“+” (≥10% = +),116 (YHIDEEVGF; listed as Homo sapiens) [compound 116]
11,“+++” (≥50 = +++),117 (ILPDGEDFLAV; listed as Homo sapiens) [compound 117]
12,“++++” (≥75% = ++++),119 (FLYIGDIVSL; listed as Homo sapiens) [compound 119]
13,“+++” (≥50 = +++),120 (ALLGIPLTLV; listed as Homo sapiens) [compound 120]
14,“++” (≥20% = ++),121 (GVVDPRAISVL; listed as Homo sapiens) [compound 121]
15,“+++” (≥50 = +++),122 (FLLAEDDIYL; listed as Homo sapiens) [compound 122]
16,“+++” (≥50 = +++),123 (NLWDLTDASVV; listed as Homo sapiens) [compound 123]
17,“++” (≥20% = ++),124 (ALYETELADA; listed as Homo sapiens) [compound 124]
18,“+++” (≥50 = +++),125 (VQIHQVAQV; listed as Homo sapiens) [compound 125]
19,“++++” (≥75% = ++++),126 (VLAYFLPEA; listed as Homo sapiens) [compound 126]
20,“++” (≥20% = ++),127 (KIGDEPPKV; listed as Homo sapiens) [compound 127]
21,“++” (≥20% = ++),128 (YLFDDPLSAV; listed as Homo sapiens) [compound 128]

row,"Peptide exchange (MHC class I binding score, peptide exchange yield)",Substance
1,“+++” (≥50 = +++),129 (GLLDGGVDILL; listed as Homo sapiens) [compound 129]
2,“+++” (≥50 = +++),130 (FLWNGEDSALL; listed as Homo sapiens) [compound 130]
3,“++” (≥20% = ++),131 (FVPPVTVFPSL; listed as Homo sapiens) [compound 131]
4,“+++” (≥50 = +++),132 (LLVEQPPLAGV; listed as Homo sapiens) [compound 132]
5,“++” (≥20% = ++),133 (KVLSNIHTV; listed as Homo sapiens) [compound 133]
6,“+++” (≥50 = +++),134 (YLQELIFSV; listed as Homo sapiens) [compound 134]
7,“+++” (≥50 = +++),135 (ALSEVDFQL; listed as Homo sapiens) [compound 135]
8,“+++” (≥50 = +++),136 (YLADPSNLFVV; listed as Homo sapiens) [compound 136]
9,“++++” (≥75% = ++++),137 (TLVLTLPTV; listed as Homo sapiens) [compound 137]
10,“+++” (≥50 = +++),138 (YQYPRAILSV; listed as Homo sapiens) [compound 138]
11,“+++” (≥50 = +++),139 (SVMEVNSGIYRV; listed as Homo sapiens) [compound 139]
12,“++” (≥20% = ++),140 (YMDAPKAAL; listed as Homo sapiens) [compound 140]
13,“+++” (≥50 = +++),142 (FLFATPVFI; listed as Homo sapiens) [compound 142]
14,“+++” (≥50 = +++),144 (YIMEPSIFNTL; listed as Homo sapiens) [compound 144]
15,“++” (≥20% = ++),145 (FLATSGTLAGI; listed as Homo sapiens) [compound 145]
16,“++” (≥20% = ++),146 (SLATAGDGLIEL; listed as Homo sapiens) [compound 146]
17,“+++” (≥50 = +++),147 (SLLEAVSFL; listed as Homo sapiens) [compound 147]
18,“++” (≥20% = ++),148 (ALNPEIVSV; listed as Homo sapiens) [compound 148]
19,“+++” (≥50 = +++),149 (NLLELFVQL; listed as Homo sapiens) [compound 149]
20,“+++” (≥50 = +++),151 (KILQQLVTL; listed as Homo sapiens) [compound 151]
21,“+++” (≥50 = +++),152 (ILFEDIFDV; listed as Homo sapiens) [compound 152]

row,"Peptide exchange (MHC class I binding score, peptide exchange yield)",Substance
1,“+” (≥10% = +),153 (FLIANVLYL; listed as Homo sapiens) [compound 153]
2,“++” (≥20% = ++),154 (ALDDGTPAL; listed as Homo sapiens) [compound 154]
3,“+++” (≥50 = +++),155 (RVANLHFPSV; listed as Homo sapiens) [compound 155]
4,“++” (≥20% = ++),157 (SLNDEVPEV; listed as Homo sapiens) [compound 157]
5,“+++” (≥50 = +++),158 (KLFDVDEDGYI; listed as Homo sapiens) [compound 158]
6,“++++” (≥75% = ++++),159 (GLVGNPLPSV; listed as Homo sapiens) [compound 159]
7,“+++” (≥50 = +++),160 (FLFDEEIEQI; listed as Homo sapiens) [compound 160]
8,“+++” (≥50 = +++),161 (ALLEGVNTV; listed as Homo sapiens) [compound 161]
9,“+++” (≥50 = +++),162 (YQQAQVPSV; listed as Homo sapiens) [compound 162]
10,“+++” (≥50 = +++),163 (ALDEMGDLLQL; listed as Homo sapiens) [compound 163]
11,“+++” (≥50 = +++),164 (ALLPQPKNLTV; listed as Homo sapiens) [compound 164]
12,“+++” (≥50 = +++),165 (SLLDEIRAV; listed as Homo sapiens) [compound 165]
13,“+++” (≥50 = +++),167 (KVLEVTEEFGV; listed as Homo sapiens) [compound 167]
14,“++++” (≥75% = ++++),168 (KILDADIQL; listed as Homo sapiens) [compound 168]
15,“+++” (≥50 = +++),169 (NLPEYLPFV; listed as Homo sapiens) [compound 169]
16,“+++” (≥50 = +++),170 (RLQETLSAA; listed as Homo sapiens) [compound 170]
17,“+++” (≥50 = +++),171 (LLLPLQILL; listed as Homo sapiens) [compound 171]
18,“++” (≥20% = ++),172 (VLYSYTIITV; listed as Homo sapiens) [compound 172]
19,“+++” (≥50 = +++),173 (LLDSASAGLYL; listed as Homo sapiens) [compound 173]

# Reference: patent publication US10280205B2, “Method for treating cancer with an activated T lymphocyte that selectively recognizes a cancer cell consisting of specific peptide” (immatics biotechnologies GmbH, priority 2015, dated 2019)
